Measurements as given in patent US20230039279.

Key:
[1] = molecular target: T1, MMP-9 sensitive peptide (GPRSLSG-RRCG) linked ibuprofen (not fully specified)
T1 chain: GPRSLSGRRCG

[2] = molecular target: T2, HNE peptide substrate H2, GRCR-PMAVVQSVP-RCRG (not fully specified)
T2 chain: GRCRPMAVVQSVPRCRG

B1: human neutrophil elastase (HNE) (protein)
chain: IVGGRRARPHAWPFMVSLQLRGGHFCGATLIAPNFVMSAAHCVANVNVRAVRVVLGAHNLSRREPTRQVFAVQRIFENGYDPVNLLNDIVILQLNGSATINANVQVAQLPAQGRRLGNGVQCLAMGWGLLGRNRGIASVLQELNVTVVTSLCRRSNVCTLVRGRQAGVCFGDSGSPLVCNGLIHGIASFVRGGCASGLYPDAFAPVAQFVNWIDSIIQ
Which results are given for B1?
maximum cumulative drug release at 48 hours from the dual-responsive conjugate hydrogel, HNE alone (1 µg/ml) [1]: maximum cumulative drug release reached 24%, which was much lower than the release in enzyme MMP-9 solution; specificity of protease-triggered ibuprofen liberation (FIG. 10B) [1]: the peptide sequence, GPRSLSGRRCG (SEQ ID NO: 20), as a spacer illustrated a good specificity toward MMP-9 compared to cathepsin B and human neutrophil elastase (HNE); degradation of H2-M2 combinational hydrogel and release of PLGA particles over 24 hours [2]: H2 and M2 peptide substrates were preferentially cleaved by HNE and MMP-9 proteases respectively
